From article PMC7693302

Target: S2 domain of SARS-CoV-2 S protein (from S protein with FLAG at both N- and C-termini) (SARS-CoV-2)
Experiment: co-sedimentation

## S1 domain of S^G614 (from S protein with FLAG at both N- and C-termini) (domain or fragment)
  fold S1:S2 ratio against PV^D614: 3.5 fold
